Measured values: the supplement of paper PMC9112550, “Optimization of the antimicrobial peptide Bac7 by deep mutational scanning” (BMC Biology, 2022)

Tested on: Escherichia coli TOP10
Assay: shrunken log2 fold change of peptide-encoding DNA abundance (4.5 h post-induction vs induction); higher = less antimicrobial activity (less host growth inhibition)
Settings: time post-induction: 4.5 h; library: site-saturation at positions 5, 18, 19, 20
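Further: peptides expressed intracellularly from a pBAD plasmid library in pooled LB shake-flask culture, induced with 0.3% L-arabinose, DNA abundance read by NGS, three biological replicates, DESeq2 with apeglm shrinkage.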

In the case of RRIRKRPPRLPRPRPRPCYFPRP, the “shrunken log2 fold change” value is reported as -0.00436.

With RRIRKRPPRLPRPRPRPCYLPRP the “shrunken log2 fold change” value was -0.427.

In the case of RRIRKRPPRLPRPRPRPCYPPRP, the “shrunken log2 fold change” value is reported as -0.446.

In the case of RRIRKRPPRLPRPRPRPCYSPRP, the “shrunken log2 fold change” value is reported as -0.178.

For RRIRKRPPRLPRPRPRPDCSPRP, the “shrunken log2 fold change” value was -0.0754.

For RRIRKRPPRLPRPRPRPDEDPRP, the “shrunken log2 fold change” value was -0.00112.

With RRIRKRPPRLPRPRPRPDEEPRP the “shrunken log2 fold change” value was 2.82.

With RRIRKRPPRLPRPRPRPDFMPRP the “shrunken log2 fold change” value was 0.028.

With RRIRKRPPRLPRPRPRPDGCPRP the “shrunken log2 fold change” value was 0.14.

With RRIRKRPPRLPRPRPRPDHDPRP the “shrunken log2 fold change” value was 0.0562.

RRIRKRPPRLPRPRPRPDIMPRP was tested, and the “shrunken log2 fold change” value was 1.57.

In the case of RRIRKRPPRLPRPRPRPDKPPRP, the “shrunken log2 fold change” value is reported as 0.128.

For RRIRKRPPRLPRPRPRPDMHPRP, the “shrunken log2 fold change” value was 0.051.

In the case of RRIRKRPPRLPRPRPRPDMWPRP, the “shrunken log2 fold change” value is reported as 0.245.

With RRIRKRPPRLPRPRPRPDNTPRP the “shrunken log2 fold change” value was -0.0368.

In the case of RRIRKRPPRLPRPRPRPDPWPRP, the “shrunken log2 fold change” value is reported as 0.422.

With RRIRKRPPRLPRPRPRPDPYPRP the “shrunken log2 fold change” value was -0.0561.

RRIRKRPPRLPRPRPRPDQEPRP was tested, and the “shrunken log2 fold change” value was 0.0193.

For RRIRKRPPRLPRPRPRPDQQPRP, the “shrunken log2 fold change” value was 0.0777.

For RRIRKRPPRLPRPRPRPDRVPRP, the “shrunken log2 fold change” value was -0.00884.

RRIRKRPPRLPRPRPRPDTDPRP was tested, and the “shrunken log2 fold change” value was 0.198.

In the case of RRIRKRPPRLPRPRPRPDVNPRP, the “shrunken log2 fold change” value is reported as 0.139.

With RRIRKRPPRLPRPRPRPDWSPRP the “shrunken log2 fold change” value was 0.0357.

With RRIRKRPPRLPRPRPRPEARPRP the “shrunken log2 fold change” value was 0.429.

In the case of RRIRKRPPRLPRPRPRPEAYPRP, the “shrunken log2 fold change” value is reported as 0.0226.

For RRIRKRPPRLPRPRPRPEDCPRP, the “shrunken log2 fold change” value was -0.00264.

RRIRKRPPRLPRPRPRPEDIPRP was tested, and the “shrunken log2 fold change” value was -0.00208.

For RRIRKRPPRLPRPRPRPEECPRP, the “shrunken log2 fold change” value was 0.00489.

In the case of RRIRKRPPRLPRPRPRPEERPRP, the “shrunken log2 fold change” value is reported as 1.23.

In the case of RRIRKRPPRLPRPRPRPEFCPRP, the “shrunken log2 fold change” value is reported as 0.771.

For RRIRKRPPRLPRPRPRPEGCPRP, the “shrunken log2 fold change” value was 0.959.

With RRIRKRPPRLPRPRPRPEGWPRP the “shrunken log2 fold change” value was 1.46.

With RRIRKRPPRLPRPRPRPEHGPRP the “shrunken log2 fold change” value was 0.0647.

For RRIRKRPPRLPRPRPRPEHMPRP, the “shrunken log2 fold change” value was 0.829.

For RRIRKRPPRLPRPRPRPEHYPRP, the “shrunken log2 fold change” value was 0.0532.

With RRIRKRPPRLPRPRPRPEKCPRP the “shrunken log2 fold change” value was 0.0317.

With RRIRKRPPRLPRPRPRPEKKPRP the “shrunken log2 fold change” value was -0.018.

For RRIRKRPPRLPRPRPRPEKYPRP, the “shrunken log2 fold change” value was -0.0153.

For RRIRKRPPRLPRPRPRPELHPRP, the “shrunken log2 fold change” value was 0.0814.

With RRIRKRPPRLPRPRPRPEMDPRP the “shrunken log2 fold change” value was 0.0842.

RRIRKRPPRLPRPRPRPEQYPRP was tested, and the “shrunken log2 fold change” value was 0.104.

RRIRKRPPRLPRPRPRPERAPRP was tested, and the “shrunken log2 fold change” value was 0.892.

In the case of RRIRKRPPRLPRPRPRPEREPRP, the “shrunken log2 fold change” value is reported as 0.671.

With RRIRKRPPRLPRPRPRPERGPRP the “shrunken log2 fold change” value was 0.443.

With RRIRKRPPRLPRPRPRPERTPRP the “shrunken log2 fold change” value was 0.772.

In the case of RRIRKRPPRLPRPRPRPETDPRP, the “shrunken log2 fold change” value is reported as 0.0366.

With RRIRKRPPRLPRPRPRPETTPRP the “shrunken log2 fold change” value was 1.53.

With RRIRKRPPRLPRPRPRPEVMPRP the “shrunken log2 fold change” value was 0.148.

With RRIRKRPPRLPRPRPRPEVWPRP the “shrunken log2 fold change” value was 0.951.

With RRIRKRPPRLPRPRPRPEWIPRP the “shrunken log2 fold change” value was 0.454.

For RRIRKRPPRLPRPRPRPEYGPRP, the “shrunken log2 fold change” value was 0.087.

With RRIRKRPPRLPRPRPRPEYHPRP the “shrunken log2 fold change” value was -0.0122.

In the case of RRIRKRPPRLPRPRPRPEYWPRP, the “shrunken log2 fold change” value is reported as -0.0125.

RRIRKRPPRLPRPRPRPFAAPRP was tested, and the “shrunken log2 fold change” value was 0.662.

RRIRKRPPRLPRPRPRPFAFPRP was tested, and the “shrunken log2 fold change” value was 0.272.

RRIRKRPPRLPRPRPRPFAPPRP was tested, and the “shrunken log2 fold change” value was 0.792.

For RRIRKRPPRLPRPRPRPFATPRP, the “shrunken log2 fold change” value was 0.45.

For RRIRKRPPRLPRPRPRPFDDPRP, the “shrunken log2 fold change” value was -0.131.

In the case of RRIRKRPPRLPRPRPRPFDNPRP, the “shrunken log2 fold change” value is reported as 0.057.

RRIRKRPPRLPRPRPRPFGKPRP was tested, and the “shrunken log2 fold change” value was 0.144.
